Results on 1 substance are retold here after paper PMC4926069.

This experiment has as its target Angiotensin I-converting enzyme (ACE, EC 3.4.15.1, from rabbit lung) (rabbit) (UniProt P12822).
Sequence of UniProt P12822 (P12822 34-1310): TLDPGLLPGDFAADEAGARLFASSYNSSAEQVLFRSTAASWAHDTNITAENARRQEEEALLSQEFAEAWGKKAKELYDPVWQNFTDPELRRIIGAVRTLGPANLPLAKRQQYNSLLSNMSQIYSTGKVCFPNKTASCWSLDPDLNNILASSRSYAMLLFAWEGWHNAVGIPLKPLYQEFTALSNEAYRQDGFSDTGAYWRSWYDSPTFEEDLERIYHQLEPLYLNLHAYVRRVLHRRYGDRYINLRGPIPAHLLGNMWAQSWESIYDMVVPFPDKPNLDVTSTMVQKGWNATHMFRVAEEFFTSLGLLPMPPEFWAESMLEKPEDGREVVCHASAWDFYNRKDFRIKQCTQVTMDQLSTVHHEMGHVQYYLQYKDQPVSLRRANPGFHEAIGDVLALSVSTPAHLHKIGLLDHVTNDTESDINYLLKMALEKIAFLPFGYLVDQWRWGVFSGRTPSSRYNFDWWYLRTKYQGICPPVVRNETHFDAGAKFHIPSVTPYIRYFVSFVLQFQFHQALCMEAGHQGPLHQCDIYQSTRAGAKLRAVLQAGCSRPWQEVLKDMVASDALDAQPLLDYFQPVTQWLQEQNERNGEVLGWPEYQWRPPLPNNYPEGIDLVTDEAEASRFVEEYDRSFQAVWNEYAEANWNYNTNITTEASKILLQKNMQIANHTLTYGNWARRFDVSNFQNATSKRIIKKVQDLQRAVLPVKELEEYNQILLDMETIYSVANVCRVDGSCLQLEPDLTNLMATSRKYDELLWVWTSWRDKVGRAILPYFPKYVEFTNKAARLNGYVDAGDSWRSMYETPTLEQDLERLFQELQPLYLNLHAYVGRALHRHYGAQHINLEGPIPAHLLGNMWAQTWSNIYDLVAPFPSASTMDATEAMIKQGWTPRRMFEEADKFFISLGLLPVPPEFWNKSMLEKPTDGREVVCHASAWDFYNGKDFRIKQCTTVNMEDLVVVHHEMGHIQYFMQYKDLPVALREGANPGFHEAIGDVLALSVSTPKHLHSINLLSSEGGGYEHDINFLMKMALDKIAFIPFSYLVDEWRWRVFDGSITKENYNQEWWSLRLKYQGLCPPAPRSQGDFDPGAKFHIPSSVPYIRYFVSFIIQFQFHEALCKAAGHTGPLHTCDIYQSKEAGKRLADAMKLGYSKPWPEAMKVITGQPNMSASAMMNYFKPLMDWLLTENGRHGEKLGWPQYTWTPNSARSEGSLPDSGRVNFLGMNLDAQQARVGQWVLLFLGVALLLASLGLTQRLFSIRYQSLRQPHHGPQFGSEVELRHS

Substance Val-Gln-Tyr (VQY) (peptide) showed an IC50 of inhibition of ACE activity (HHL as substrate, hippuric acid measured by RP-HPLC; 0.25–100 μM peptide, four-parameter logistic fit) of 9.8 μM.
